Source: patent publication US20220144943A1 (INTEGRITY BIOVENTURES, published 2022)

Biological target: T1, CD47 (UniProt Q08722 19-139, limits assumed)
T1 construct: also called Antigen; Cluster of differentiation 47
Test: Octet HTX BLI, antibody on anti-human Fc biosensors, antigen in solution, 1:1 fit
Protocol: The affinity of 9 humanized antibody combinations and the chimeric parental antibody was evaluated by Octet. Multi-concentration kinetic experiments were performed on the Octet HTX system (ForteBio). Anti-human Fc biosensors (ForteBio) were hydrated in sample diluent (0.1% BSA in PBS and 0.02% Tween 20) and preconditioned in pH 1.9 Glycine. Antigen was diluted by a 7 point, 3 fold serial dilution starting at 500 nM with sample diluent. Antibodies were diluted to 2 ug/mL with sample diluent and then immobilized onto anti-human Fc biosensors. After baselines were established for 30 seconds in sample diluent, the biosensors were moved to wells containing serially diluted antigen to measure the association and dissociation. […] The binding affinities were characterized by fitting the kinetic sensorgrams to a monovalent binding model (1:1 binding).

T1 sequence (Q08722 19-139 limits assumed): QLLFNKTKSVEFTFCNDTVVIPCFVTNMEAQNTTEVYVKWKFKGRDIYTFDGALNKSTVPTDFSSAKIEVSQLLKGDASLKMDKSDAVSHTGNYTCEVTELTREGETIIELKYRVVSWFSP

B1: HC1 (SEQ ID NO: 123) + LC2 (SEQ ID NO: 127) (antibody, human IgG4 S228P, kappa, V domains shown)
VH: QVQLVQSGAEVKKPGASVKVSCKASGYAFTNYLIEWVRQAPGQGLEWMGVINPGSGATNYNQKFQGRVTMTADKSISTAYMELSRLRSDDTAVYFCARRVYFDYWGQGTLVTVSS
VL: EIVMTQSPATLSLSPGERATLSCRASQSISDYLHWYQQKPGQAPRLLIKYASQSISGIPARFSGSGSGSDFTLTISSLEPEDFAVYYCQNGHSFPLTFGQGTKLEIKR
notes: also called HC1 + LC2
What does the source list for B1?
Kd: 26 nM; koff: 0.0041 s⁻¹; kon: 160000 M⁻¹ s⁻¹

B2: HC1 (SEQ ID NO: 123) + LC1 (SEQ ID NO: 126) (antibody, human IgG4 S228P, kappa, V domains shown)
VH: QVQLVQSGAEVKKPGASVKVSCKASGYAFTNYLIEWVRQAPGQGLEWMGVINPGSGATNYNQKFQGRVTMTADKSISTAYMELSRLRSDDTAVYFCARRVYFDYWGQGTLVTVSS
VL: EIVLTQSPATLSLSPGERATLSCRASQSISDYLHWYQQKPGQAPRLLIKYASQSITGIPARFSGSGSGTDFTLTISSLEPEDFAVYYCQNGHSFPLTFGQGTKLEIKR
notes: also called HC1 + LC1
What does the source list for B2?
Kd: 15 nM; koff: 0.0025 s⁻¹; kon: 160000 M⁻¹ s⁻¹

B3: HC1 (SEQ ID NO: 123) + LC3 (SEQ ID NO: 128) (antibody, human IgG4 S228P, kappa, V domains shown)
VH: QVQLVQSGAEVKKPGASVKVSCKASGYAFTNYLIEWVRQAPGQGLEWMGVINPGSGATNYNQKFQGRVTMTADKSISTAYMELSRLRSDDTAVYFCARRVYFDYWGQGTLVTVSS
VL: DIVMTQSPATLSLSPGERATLSCRASQSISDYLHWYQQKPGQAPRLLIKYASQSISGIPARFSGSGSGTDFTLTISSLEPEDFAVYYCQNGHSFPLTFGQGTRLEIKR
notes: also called HC1 + LC3
How did the Kd turn out when B3 was run?
Its Kd is 15 nM.

And the koff?
The koff was 0.0027 s⁻¹.

What about the kon of the same binder?
Its kon is 180000 M⁻¹ s⁻¹.

B4: HC2 (SEQ ID NO: 124) + LC3 (SEQ ID NO: 128) (antibody, human IgG4 S228P, kappa, V domains shown)
VH: QVQLVQSGAEVKKPGASVKVSCKASGYAFTNYLIEWVRQAPGQGLEWIGVINPGSGATNYNQKFQGRVTLTADKSISTAYMELSRLRSDDTAVYFCARRVYFDYWGQGTLVTVSS
VL: DIVMTQSPATLSLSPGERATLSCRASQSISDYLHWYQQKPGQAPRLLIKYASQSISGIPARFSGSGSGTDFTLTISSLEPEDFAVYYCQNGHSFPLTFGQGTRLEIKR
notes: also called HC2 + LC3
Which Kd does the source give for B4 here?
Its Kd is 23 nM.

What about the koff of the same binder?
Its koff is 0.0034 s⁻¹.

And the kon?
The kon was 150000 M⁻¹ s⁻¹.

B5: HC2 (SEQ ID NO: 124) + LC2 (SEQ ID NO: 127) (antibody, human IgG4 S228P, kappa, V domains shown)
VH: QVQLVQSGAEVKKPGASVKVSCKASGYAFTNYLIEWVRQAPGQGLEWIGVINPGSGATNYNQKFQGRVTLTADKSISTAYMELSRLRSDDTAVYFCARRVYFDYWGQGTLVTVSS
VL: EIVMTQSPATLSLSPGERATLSCRASQSISDYLHWYQQKPGQAPRLLIKYASQSISGIPARFSGSGSGSDFTLTISSLEPEDFAVYYCQNGHSFPLTFGQGTKLEIKR
notes: also called HC2 + LC2
B5 was tested. Which Kd did it give?
The Kd was 18 nM.

And the koff?
Its koff is 0.003 s⁻¹.

What about the kon of the same binder?
Its kon is 170000 M⁻¹ s⁻¹.

B6: HC3 (SEQ ID NO: 125) + LC3 (SEQ ID NO: 128) (antibody, human IgG4 S228P, kappa, V domains shown)
VH: QVQLVQSGAEVKKPGASVKVSCKASGYAFTNYLIEWVRQAPGQGLEWMGVINPGSGATNYNQKFQGRVTMTADKSTSTVYMELSSLRSEDTAVYFCARRVYFDYWGQGTLVTVSS
VL: DIVMTQSPATLSLSPGERATLSCRASQSISDYLHWYQQKPGQAPRLLIKYASQSISGIPARFSGSGSGTDFTLTISSLEPEDFAVYYCQNGHSFPLTFGQGTRLEIKR
notes: also called HC3 + LC3
For B6, which Kd is on record?
The Kd was 15 nM.

And the koff?
Its koff is 0.0025 s⁻¹.

What about the kon of the same binder?
The kon was 170000 M⁻¹ s⁻¹.

B7: HC3 (SEQ ID NO: 125) + LC1 (SEQ ID NO: 126) (antibody, human IgG4 S228P, kappa, V domains shown)
VH: QVQLVQSGAEVKKPGASVKVSCKASGYAFTNYLIEWVRQAPGQGLEWMGVINPGSGATNYNQKFQGRVTMTADKSTSTVYMELSSLRSEDTAVYFCARRVYFDYWGQGTLVTVSS
VL: EIVLTQSPATLSLSPGERATLSCRASQSISDYLHWYQQKPGQAPRLLIKYASQSITGIPARFSGSGSGTDFTLTISSLEPEDFAVYYCQNGHSFPLTFGQGTKLEIKR
notes: also called HC3 + LC1
With B7 as the binder, how does the Kd read?
Its Kd is 12 nM.

What about the koff of the same binder?
The koff was 0.0025 s⁻¹.

What about the kon of the same binder?
The kon was 220000 M⁻¹ s⁻¹.

B8: HC3 (SEQ ID NO: 125) + LC2 (SEQ ID NO: 127) (antibody, human IgG4 S228P, kappa, V domains shown)
VH: QVQLVQSGAEVKKPGASVKVSCKASGYAFTNYLIEWVRQAPGQGLEWMGVINPGSGATNYNQKFQGRVTMTADKSTSTVYMELSSLRSEDTAVYFCARRVYFDYWGQGTLVTVSS
VL: EIVMTQSPATLSLSPGERATLSCRASQSISDYLHWYQQKPGQAPRLLIKYASQSISGIPARFSGSGSGSDFTLTISSLEPEDFAVYYCQNGHSFPLTFGQGTKLEIKR
notes: also called HC3 + LC2
What does the source list for B8?
Kd: 29 nM; koff: 0.0036 s⁻¹; kon: 120000 M⁻¹ s⁻¹

B9: HC2 (SEQ ID NO: 124) + LC1 (SEQ ID NO: 126) (antibody, human IgG4 S228P, kappa, V domains shown)
VH: QVQLVQSGAEVKKPGASVKVSCKASGYAFTNYLIEWVRQAPGQGLEWIGVINPGSGATNYNQKFQGRVTLTADKSISTAYMELSRLRSDDTAVYFCARRVYFDYWGQGTLVTVSS
VL: EIVLTQSPATLSLSPGERATLSCRASQSISDYLHWYQQKPGQAPRLLIKYASQSITGIPARFSGSGSGTDFTLTISSLEPEDFAVYYCQNGHSFPLTFGQGTKLEIKR
notes: also called HC2 + LC1
For B9, which Kd is on record?
The Kd was 22 nM.

And the koff?
Its koff is 0.0035 s⁻¹.

And the kon?
The kon was 160000 M⁻¹ s⁻¹.
